Data: US20190359711A1

Tests used:
[1] = target: CD3 on human pan T cells (human) (UniProt P07766); test: Kd derived from the competition IC50: Kd=IC50/(1+([T]/KdT)); human pan T cells
[2] = target: CD3 on human pan T cells (human) (UniProt P07766); test: flow cytometry competition on human pan T cells; competitor tracer AlexaFluor488 SP34-2 at 16.6 nM

Sequence of CD3 on human pan T cells (human) (P07766 23-207 limits assumed): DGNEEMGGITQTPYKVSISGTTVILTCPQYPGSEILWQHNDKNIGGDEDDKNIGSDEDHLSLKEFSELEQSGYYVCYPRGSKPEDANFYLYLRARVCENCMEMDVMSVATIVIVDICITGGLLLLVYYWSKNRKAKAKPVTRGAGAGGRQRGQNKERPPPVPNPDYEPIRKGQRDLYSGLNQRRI

Kd [1] [nM] | IC50 [2] [nM] | Binder
103 | 409 | CD3B376 monovalent construct (bispecific antibody, part only; not given: second arm, constant regions, V domains shown, not shown: another chain or arm of the molecule; a dimerising Fc or GST) VH: QVQLQQSGPRLVRPSQTLSLTCAISGDSVFNNNAAWSWIRQSPSRGLEWLGRTYYRSKWLYDYAVSVKSRITVNPDTSRNQFTLQLNSVTPEDTALYYCARGYSSSFDYWGQGTLVTVSS VL: QSALTQPASVSGSPGQSITISCTGTSSNIGTYKFVSWYQQHPDKAPKVLLYEVSKRPSGVSSRFSGSKSGNTASLTISGLQAEDQADYHCVSYAGSGTLLFGGGTKLTVL
254 | 1010 | CD3B450 monovalent construct (bispecific antibody, part only; not given: second arm, constant regions, V domains shown, not shown: another chain or arm of the molecule; a dimerising Fc or GST) VH: QVQLQQSGPGLVKPSQTLSLTCAISGDSVFNNNAAWSWIRQSPSRGLEWLGRTYYRSKWLYDYAVSVKSRITINPDTSKNQFSLQLNSVTPEDTAVYYCARGYSSSFDYWGQGTLVTVSS VL: QSALTQPASVSGSPGQSITISCTGTSSNIGTYKFVSWYQQHPGKAPKVMIYEVSKRPSGVSNRFSGSKSGNTASLTISGLQAEDEADYYCVSYAGSGTLLFGGGTKLTVL
